According to patent publication US20250388665A1 (ADAFRE BIOSCIENCES, published 2025):
Where a chain is given by its changes, count along the chain named. Values belong to the binder of their own block, whether it stands above or below them.

How the values were obtained:
[1] = target: T1, murine TNFα (murine, UniProt P06804 80-235, limits assumed, biotinylated (sites not given)); assay: ELISA: Fab captured via anti-human Fd, biotinylated murine TNFα titrated (x axis), prolonged dissociation at pH 7.4, A450
T1 construct: Bought reagent; also called biotinylated murine TNFα
T1 sequence (looked up): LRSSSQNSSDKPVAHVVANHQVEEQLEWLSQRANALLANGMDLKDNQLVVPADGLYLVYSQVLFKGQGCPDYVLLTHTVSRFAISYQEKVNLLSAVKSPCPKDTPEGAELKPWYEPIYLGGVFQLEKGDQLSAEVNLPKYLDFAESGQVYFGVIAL
Method: A 96-well Costar-3366 plate was coated with 50 μL/well of 2 μg/mL sheep anti-human Fd (Southern Biotech, Prod. #2046-01) in PBS for 1 hour at room temperature. The plate was washed four times with PBS containing 0.05% Tween 20 (PBS-T) and blocked with 100 μL/well of 1% BSA-PBS for 1 hour at room temperature. Block was removed and 50 μL/well of 0.5 ug/mL sample was added. Sample dilutions were performed with 1% BSA-PBS. The plate was washed four times with PBS containing 0.05% Tween 20 (PBS-T), then biotinylated murine (Acro biosystems) TNFα was serially diluted 3-fold starting at 30 nM in B-PBS and incubated for 1 h at 25° C. (50 μL/well). The plates were washed in 500 mL of PBS-T, pH 6.0 or PBS-T, pH 7.4 for 1 hour. PBS-T was removed from the plates every 10 minutes during this wash. The plates were then washed four times with PBS-T, and incubated with 50 μL/well of Neutravidin HRP (ThermoFisher Scientific, cat. #31030), diluted 2,000-fold in B-PBS for 1 h at 25° C. The plate was washed four times with PBS-T, then developed with 50 μL/well 1-Step Ultra TMB-ELISA (ThermoFisher Scientific, Prod. #34028). The reaction was terminated by the addition of 2 N H₂SO₄ and the A450 was determined before and after addition of H₂SO₄, respectively, using a Spectramax plate reader.

[2] = target: T2, human TNFα (human, UniProt P01375 77-233, biotinylated in the Example 2 assay (sites not given)); assay: ELISA: Fab titrated on immobilized human TNFα, 2 h dissociation at pH 7.4 with 100 nM soluble TNFα, A450
T2 construct: also called biotinylated human TNFα; soluble TNFα
T2 sequence (P01375 77-233 limits assumed): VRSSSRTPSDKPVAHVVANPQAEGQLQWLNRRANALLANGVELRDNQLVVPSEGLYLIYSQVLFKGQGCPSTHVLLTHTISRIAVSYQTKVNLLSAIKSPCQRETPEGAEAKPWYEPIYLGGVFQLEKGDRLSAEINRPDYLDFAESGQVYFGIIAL
Method: (§1) A 96-well Costar-3366 plate was coated with 50 μL/well of 1 μg/mL human TNFα (Genscript cat. #Z01001) in PBS for one hour at room temperature. The plate was rinsed twice with PBS-T and blocked with 100 μL/well of 1% BSA in PBS (B-PBS) for 1 h at 25° C. Fab samples were serially diluted 3-fold starting at 40 nM in B-PBS and were incubated for 1 h at 25° C. (50 μL/well). The plate was washed four times with PBS-T and 50 µL/well of 100 nM human TNFα in 1% BSA was added for 2 h at 25° C. The plate was washed four times with PBS-T and 50 μL/well of anti-human kappa, HRP conjugate (Southern Biotech, Prod. #2060-05) diluted 5,000-fold in B-PBS was added for 1 h at 25° C. The plate was washed three times with PBS-T, then developed with 50 μL/well 1-Step Ultra TMB-ELISA (ThermoFisher Scientific, Prod. #34028). The reaction was terminated by the addition of 2 N H₂SO₄ and the A450 was determined before and after addition of H₂SO₄, respectively, using a Spectramax plate reader.
(§2) The ELISA method used to characterize these variants was described in Example 3.

[3] = target: T2, human TNFα; assay: as above; remark: listed apart in the source
Method: as §1

[4] = target: T2, human TNFα; assay: ELISA: Fab titrated on immobilized human TNFα, 2 h dissociation at pH 7.4 with 100 nM soluble TNFα, A450 [cont.) C]
Method: as §1, §2

[5] = target: T2, human TNFα; assay: ELISA: Fab titrated on immobilized human TNFα, 2 h dissociation at pH 6.0 with 100 nM soluble TNFα, A450
Method: as §1, §2

- binding result [1]: no binding (tested: log -7.5 M b-muTNF)
B1: Ab4 Fab (Fab, V domains shown)
VH: EVQLVESGGGLVQPGGSLRLSCAASGYVFTDYGMNWVRQAPGKGLEWMGWINTYIGEPIYADSVKGRFTFSLDTSKSTAYLQMNSLRAEDTAVYYCARGYRSYAMDYWGQGTLVTVSS
VL: DIQMTQSPSSLSASVGDRVTITCKASQNVGTNVAWYQQKPGKAPKALIYSASFLYSGVPYRFSGSGSGTDFTLTISSLQPEDFATYYCQQYNIYPLTFGQGTKVEIK
notes: Fab: VH/VL joined to human kappa constant domain and human G1 CH1

- binding result [2]: binds
B2: A1 VH2 (Fab, V domains shown)
VH: EVQLVESGGGLVQPGRSLRLSCAASGFTFDQYAMHWVRQAPGKGLEWVSAITWNSGHIDYADSVEGRFTISRDNAKNSLYLQMNSLRAEDTAVYYCAKVSYLPTAHHLDYWGQGTLVTVSS
VL: not shown
notes: as for B1

- EC50 (read off the curve) [3]: ~2 nM
- binding result [1]: binds
- EC50 (read off the curve) [2]: ~0.7 nM
B3: A1 VH3 (Fab, V domains shown)
VH: B2 VH with S100H, L102H, H106S, H107S
VL: not shown
notes: as for B1

- binding result [1]: no binding (tested: log -7.5 M b-muTNF)
- EC50 (read off the curve) [2]: ~3 nM
B4: AF-M2637 Fab (Fab, V domains shown)
VH: not shown
VL: DIQMTQSPSSLSASVGDRVTITCRASQGIRNYLAWYQQKPGKAPKLLIYAASTLQSGVPSRFSGSGSGTDFTLTISSLQPEDVATYYCHHYHRAPYTFGQGTKVEIK
notes: pH switch variant of Ab1; Fab: VH/VL joined to human kappa constant domain and human G1 CH1; also called control AF-M2637

- EC50 (read off the curve) [4]: ~1 nM
- binding result [1]: binds
B5: A1 VL7 (Fab, V domains shown)
VH: not shown
VL: B4 VL with G28E, Y32H, H89Q, H90R, H92N, R93H
notes: as for B1

- EC50 (read off the curve) [5]: ~0.7 nM
- EC50 (read off the curve) [2]: ~0.4 nM
B6: A1 VL2 (Fab, V domains shown)
VH: not shown
VL: B4 VL with G28E, H89Q
notes: as for B1

- EC50 (read off the curve) [5]: ~0.9 nM
B7: A1 VL3 (Fab, V domains shown)
VH: not shown
VL: B4 VL with G28E, H89Q, T97H
notes: as for B1

- EC50 (read off the curve) [5]: ~1 nM
B8: A1 VL4 (Fab, V domains shown)
VH: not shown
VL: B4 VL with G28E
notes: as for B1
